For this series, the target named is delta-plasminogen.
delta-plasminogen, sequence (chain, as listed by the source mutant): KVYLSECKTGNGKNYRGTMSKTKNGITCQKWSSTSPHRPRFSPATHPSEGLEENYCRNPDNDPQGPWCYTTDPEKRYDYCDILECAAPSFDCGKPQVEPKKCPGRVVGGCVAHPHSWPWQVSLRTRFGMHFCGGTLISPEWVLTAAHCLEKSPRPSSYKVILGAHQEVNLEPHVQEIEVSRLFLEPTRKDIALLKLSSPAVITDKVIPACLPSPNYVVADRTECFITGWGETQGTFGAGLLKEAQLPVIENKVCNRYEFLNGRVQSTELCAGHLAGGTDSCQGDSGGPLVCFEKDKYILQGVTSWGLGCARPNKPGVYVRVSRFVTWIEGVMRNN

B1: tissue Plasminogen Activator (protein)
chain: SYQVICRDEKTQMIYQQHQSWLRPVLRSNRVEYCWCNSGRAQCHSVPVKSCSEPRCFNGGTCQQALYFSDFVCQCPEGFAGKCCEIDTRATCYEDQGISYRGTWSTAESGAECTNWNSSALAQKPYSGRRPDAIRLGLGNHNYCRNPDRDSKPWCYVFKAGKYSSEFCSTPACSEGNSDCYFGNGSAYRGTHSLTESGASCLPWNSMILIGKVYTAQNPSAQALGLGKHNYCRNPDGDAKPWCHVLKNRRLTWEYCDVPSCSTCGLRQYSQPQFRIKGGLFADIASHPWQAAIFAKHRRSPGERFLCGGILISSCWILSAAHCFQERFPPHHLTVILGRTYRVVPGEEEQKFEVEKYIVHKEFDDDTYDNDIALLQLKSDSSRCAQESSVVRTVCLPPADLQLPDWTECELSGYGKHEALSPFYSERLKEAHVRLYPSSRCTSQHLLNRTVTDNMLCAGDTRSGGPQANLHDACQGDSGGPLVCLNDGRMTLVGIISWGLGCGQKDVPGVYTKVTNYLDWIRDNMRP
B1: the “conversion of one-chain delta-plasminogen into two-chain delta-plasmin (reduced SDS-PAGE)” value is on record as “delta-plasminogen indeed can be activated by all three plasminogen activators”.

These data come from US20100304465.
